Results reported in patent publication US6465220.

T1: PSGL-1a peptide
T1 chain: QATEYEYLDYDFLPEC

T2: PSGL-1b peptide
T2 chain: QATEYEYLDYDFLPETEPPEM

B1: soluble recombinant human GalNAc-T1 (pAcGP67-GalNAc-T1-sol) (protein)
chain: GLPAGDVLEPVQKPHEGPGEMGKPVVIPKEDQEKMKEMFKINQFNLMASEMIALNRSLPDVRLEGCKTKVYPDNLPTTSVVIVFHNEAWSTLLRTVHSVINRSPRHMIEEIVLVDDASERDFLKRPLESYVKKLKVPVHVIRMEQRSGLIRARLKGAAVSKGQVITFLDAHCECTVGWLEPLLARIKHDRRTVVCPIIDVISDDTFEYMAGSDMTYGGFNWKLNFRWYPVPQREMDRRKGDRTLPVRTPTMAGGLFSIDRDYFQEIGTYDAGMDIWGGENLEISFRIWQCGGTLEIVTCSHVGHVFRKATPYTFPGGTGQIINKNNRRLAEVWMDEFKNFFYIISPGVTKVDYGDISSRVGLRHKLQCKPFSWYLENIYPDSQIPRHYFSLGEIRNVETNQCLDNMARKENEKVGIFNCHGMGGNQVFSYTANKEIRTDDLCLDVSKLNGPVTMLKCHHLKGNQLWEYDPVKLTLQHVNSNQCLDKATEEDSQVPSIRDCNGSRSQQWLLRNVTLPEIF
B2: soluble recombinant human GalNAc-T3 (pAcGP67-GalNAc-T3-sol) (protein)
chain: MERNMKNKNKMLDLMLEAVNNIKDAMPKMQIGAPVRQNIDAGERPCLQGYYTAAELKPVLDRPPQDSNAPGASGKAFKTTNLSVEEQKEKERGEAKHCFNAFASDRISLHRDLGPDTRPPECIEQKFKRCPPLPTTSVIIVFHNEAWSTLLRTVHSVLYSSPAILLKEIILVDDASVDEYLHDKLDEYVKQFSIVKIVRQRERKGLITARLLGATVATAETLTFLDAHCECFYGWLEPLLARIAENYTAVVSPDIASIDLNTFEFNKPSPYGSNHNRGNFDWSLSFGWESLPDHEKQRRKDETYPIKTPTFAGGLFSISKEYFEYIGSYDEEMEIWGGENIEMSFRVWQCGGQLEIMPCSVVGHVFRSKSPHSFPKGTQVIARNQVRLAEVWMDEYKEIFYRRNTDAAKIVKQKAFGDLSKRFEIKHRLQCKNFTWYLNNIYPEVYVPDLNPVISGYIKSVGQPLCLDVGENNQGGKPLIMYTCHGLGGNQYFEYSAQHEIRHNIQKELCLHAAQGLVQLKACTYKGHKTVVTGEQIWEIQKDQLLYNPFLKMCLSANGEHPSLVSCNPSDPLQKWILSQND

Tests used:
PSGL-1a peptide = target: T1, PSGL-1a peptide
PSGL-1b peptide = target: T2, PSGL-1b peptide

Protein	Km for acceptor substrate (EA2 peptide) [µM]	Vmax (EA2 peptide) [nmol/min/µg]	Km for acceptor substrate (Muc7 peptide) [µM]	Vmax (Muc7 peptide) [nmol/min/µg]	GalNAc-transferase activity (PSGL-1a peptide)	GalNAc-transferase activity (PSGL-1b peptide)	Km for acceptor substrate (PSGL-1b peptide) [µM]
B1	70	0.99	40	0.76	exhibited poor activities with both peptide designs	exhibited poor activities with both peptide designs	> 2000
B2	–	–	–	–	exhibited poor activities with both peptide designs	exhibited poor activities with both peptide designs	–
